{"source": "patent US20230265407A1", "about": "“HUMAN RECOMBINANT ACE2-FC MUTANTS THAT DECOUPLE ANTI-SARS-COV-2 ACTIVITY FROM CARD[…]” (Northwestern University, priority 2020, published 2023)", "key": {"ACE2": {"target": "ACE2 (Homo sapiens, UniProt Q9BYF1)", "sequence (Q9BYF1 18-805)": "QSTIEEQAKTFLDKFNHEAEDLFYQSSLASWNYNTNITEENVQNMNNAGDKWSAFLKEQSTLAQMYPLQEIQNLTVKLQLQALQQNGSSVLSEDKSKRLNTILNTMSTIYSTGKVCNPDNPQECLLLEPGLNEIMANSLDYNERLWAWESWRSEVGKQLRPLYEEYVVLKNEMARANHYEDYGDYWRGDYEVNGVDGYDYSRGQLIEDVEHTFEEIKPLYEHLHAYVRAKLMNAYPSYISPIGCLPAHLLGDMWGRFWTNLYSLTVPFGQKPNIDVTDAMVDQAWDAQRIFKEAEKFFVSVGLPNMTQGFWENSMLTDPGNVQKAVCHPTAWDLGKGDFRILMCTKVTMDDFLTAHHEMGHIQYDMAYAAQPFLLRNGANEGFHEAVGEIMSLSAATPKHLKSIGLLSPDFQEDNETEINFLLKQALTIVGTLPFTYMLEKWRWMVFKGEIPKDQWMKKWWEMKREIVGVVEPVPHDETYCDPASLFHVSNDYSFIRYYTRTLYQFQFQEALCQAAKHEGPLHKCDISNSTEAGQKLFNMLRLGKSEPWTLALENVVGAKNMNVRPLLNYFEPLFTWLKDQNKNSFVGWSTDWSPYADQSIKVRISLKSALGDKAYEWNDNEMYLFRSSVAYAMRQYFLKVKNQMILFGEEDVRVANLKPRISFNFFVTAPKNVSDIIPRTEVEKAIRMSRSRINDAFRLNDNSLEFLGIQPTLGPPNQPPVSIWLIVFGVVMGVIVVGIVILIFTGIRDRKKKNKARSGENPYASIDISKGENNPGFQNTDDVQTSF", "details": "cited from earlier work"}, "[1]": {"tested_on": "Spike (SARS-CoV-2) pseudotyped lentivirus", "format": "cell-based"}, "AngII": {"tested_on": "AngII", "assay": "Phenylalanine Assay: ACE2 peptidase activity with AngII as substrate", "details": "phenylalanine hydrolysis, 20 min, 37° C.", "protocol": "(§1) ACE2 peptidase activity measured using physiological substrates of AngII and apelin-13. […] It involves two coupled reactions, hydrolysis of the C-terminus phenylalanine residues from the substrates by ACE2 catalysis and the measurement of free amino acid phenylalanine using yeast enzyme of phenylalanine ammonia lyase (PAL) in a colorimetric assay (supplementary Figure S2).\n(§2) The reactions were carried out using indicated concentrations of ACE2-Fc proteins together with either AngII or apelin-13 at indicated concentrations in reaction buffer containing 20 mM Tris-HCl, pH=7.4, 136 mM NaCl and 10 μM ZnC12. The first reaction was proceeded at 37° C. after 20 min before stopped by 80° C. heat inactivation for 5 min. The second reaction used a phenylalanine detection kit (Sigma-Aldrich, St. Louis, Mo.). 1 μL enzyme mix and 1 μL developer from the kit were added to the above reaction, which was allowed to proceed for 20 min at room temperature. Fluorescence intensity was measured at 535 nm excitation and 585 nm emission wavelength, and all reactions were performed in triplicate.\n(§3) We performed Mca-APK(Dnp) measurements, alongside phenylalanine hydrolysis assays using AngII and apelin-13 as substrates to determine the enzymatic activities of the ACE2-Fc variants (FIG. 2A-C). […] The first method used an excess amount of the enzyme (100 ng) in reactions with varying concentrations of the three substrates. This would potentially detect low partial activity of enzymes."}, "apelin-13 [2]": {"tested_on": "apelin-13", "assay": "Phenylalanine Assay: ACE2 peptidase activity with apelin-13 as substrate", "details": "phenylalanine hydrolysis, 20 min, 37° C.", "protocol": "as §1, §2, §3"}, "[3]": {"tested_on": "Mca-APK(Dnp) surrogate fluorogenic substrate", "details": "20 min reaction, compared with wild-type ACE2-Fc", "protocol": "ACE2 peptidase activity measured using surrogate Mca-APK(Dnp). ACE2-Fc peptidase activity assay using surrogate fluorogenic substrate Mca-APK(Dnp) (Enzo Life Sciences, Farmingdale, N.Y.) was performed in black microtiter plates. The reaction buffer contained 50 mM 4-morpholineethanesulfonic acid, pH=6.5, 300 mM NaCl, 10 μM ZnC12, 0.01% Triton X-100 and 20 μM of Mca-APK(Dnp). The total reaction volume was 100 μL at room temperature and the duration of the reactions were 20 min. Peptidase activities were calculated as fluorescence intensity at 320 nm excitation and 420 nm emission wavelength.\nIn parallel, we performed ACE2 activity assays using either Mca-APK(Dnp) or synthetic Ang II peptide as substrate together with individual variants of ACE2-Fc as the enzyme. By using Mca-APK(Dnp), fluorescence signals at 328 nm excitation and 393 nm emission were recorded."}, "Ang II": {"tested_on": "Ang II", "assay": "Mass spectrometry analysis of peptides generated from Ang II by ACE2-Fc", "details": "Ang II peptide as substrate"}, "Mca-APK(Dnp)": {"tested_on": "Mca-APK(Dnp)", "details": "cited from earlier work"}, "angiotensin I": {"target": "angiotensin I (Homo sapiens, UniProt Q9BYF1)", "sequence (Q9BYF1 18-805)": "as above", "details": "cited from earlier work"}, "angiotensin II": {"target": "angiotensin II (Homo sapiens, UniProt Q9BYF1)", "sequence (Q9BYF1 18-805)": "as above", "details": "cited from earlier work"}, "dynorphin-13": {"target": "dynorphin-13 (Homo sapiens, UniProt Q9BYF1)", "sequence (Q9BYF1 18-805)": "as above", "details": "cited from earlier work"}, "apelin-13 [4]": {"target": "apelin-13 (Homo sapiens, UniProt Q9BYF1)", "sequence (Q9BYF1 18-805)": "as above", "details": "cited from earlier work"}, "[5]": {"details": "mice, up to two months; cited from earlier work"}, "[6]": {"details": "degradation of AngII by the fusion; cited from earlier work"}, "[7]": {"target": "RBD of SARS-CoV-2 spike protein (Severe acute respiratory syndrome coronavirus 2, UniProt P0DTC2)"}}, "note": "Entries after “also recorded” stand apart in the source; their conditions may differ. Read-outs that look alike come from different tables or passages of the source.", "data": [{"compound": "O=C(O)CN(CCN(CC(=O)O)CC(=O)O)CC(=O)O", "note": "[EDTA]", "values": [{"measurement": "inhibition of ACE2", "setting": "ACE2", "value": "inhibited"}]}, {"compound": "CC(C)C[C@H](N[C@@H](Cc1cncn1Cc1cc(Cl)cc(Cl)c1)C(=O)O)C(=O)O", "note": "[MLN-4760]", "values": [{"measurement": "inhibition of ACE2", "setting": "ACE2", "value": "inhibited"}]}, {"compound": "C[C@H](CS)C(=O)N1CCC[C@H]1C(=O)O", "note": "[captopril]", "values": [{"measurement": "inhibition of ACE2", "setting": "ACE2", "value": "not"}]}, {"compound": "NCCCC[C@H](N[C@@H](CCc1ccccc1)C(=O)O)C(=O)N1CCC[C@H]1C(=O)O", "note": "[linosipril]", "values": [{"measurement": "inhibition of ACE2", "setting": "ACE2", "value": "not"}]}, {"compound": "E402A: ACE2-Fc fusion with single alanine substitution of Zn2+-binding residue Glu402; loss-of-activity variant", "values": [{"measurement": "IC50 of pseudotyped viral transduction", "setting": "[1]", "value": 0.25, "unit": "µg/mL"}, {"measurement": "inhibition of pseudotyped viral transduction (in words)", "setting": "[1]", "value": "could suppress the transduction of a pseudotyped virus"}, {"measurement": "peptidase activity toward AngII (Phe release)", "setting": "AngII", "value": "inactivate ACE2; also recorded: completely lost their enzymatic activity"}, {"measurement": "peptidase activity toward AngII (Phe release)", "setting": "AngII; listed as Glu402Ala", "value": "completely lack of peptidase activity"}, {"measurement": "peptidase activity toward apelin-13 (Phe release)", "setting": "apelin-13 [2]", "value": "inactivate ACE2; also recorded: completely lost their enzymatic activity"}, {"measurement": "peptidase activity toward apelin-13 (Phe release)", "setting": "apelin-13 [2]; listed as Glu402Ala", "value": "completely lack of peptidase activity"}, {"measurement": "peptidase activity toward surrogate substrate Mca-APK(Dnp)", "setting": "[3]", "value": "completely lost their enzymatic activity"}, {"measurement": "peptidase activity toward surrogate substrate Mca-APK(Dnp)", "setting": "[3]; listed as Glu402Ala", "value": "completely lack of peptidase activity"}]}, {"compound": "H345A: ACE2-Fc fusion with single alanine substitution of His345", "values": [{"measurement": "generation of Ang 1-7 from Ang II by mass spectrometry", "setting": "Ang II", "value": "full activity; also recorded: remained fully active"}, {"measurement": "generation of Ang 1-7 from Ang II by mass spectrometry", "setting": "Ang II; listed as ACE2-Fc H345A", "value": "full activity"}]}, {"compound": "H345L: Glasgow et al. ACE2 trap with H345L mutation at the catalytic center", "values": [{"measurement": "activity against Mca-APK(Dnp) (Glasgow et al.)", "setting": "Mca-APK(Dnp)", "value": "loss-of-activity"}]}, {"compound": "H374N/H378N: Glasgow et al. ACE2 trap with double mutations of the Zn2+-binding residues", "values": [{"measurement": "activity against Mca-APK(Dnp) (Glasgow et al.)", "setting": "Mca-APK(Dnp)", "value": "loss-of-activity"}]}, {"compound": "H378A: ACE2-Fc fusion with single alanine substitution of Zn2+-binding residue His378; loss-of-activity variant", "values": [{"measurement": "IC50 of pseudotyped viral transduction", "setting": "[1]", "value": 0.16, "unit": "µg/mL"}, {"measurement": "inhibition of pseudotyped viral transduction (in words)", "setting": "[1]", "value": "could suppress the transduction of a pseudotyped virus"}, {"measurement": "peptidase activity toward AngII (Phe release)", "setting": "AngII", "value": "inactivate ACE2; also recorded: completely lost their enzymatic activity"}, {"measurement": "peptidase activity toward AngII (Phe release)", "setting": "AngII; listed as His378Ala", "value": "completely lack of peptidase activity"}, {"measurement": "peptidase activity toward apelin-13 (Phe release)", "setting": "apelin-13 [2]", "value": "inactivate ACE2; also recorded: completely lost their enzymatic activity"}, {"measurement": "peptidase activity toward apelin-13 (Phe release)", "setting": "apelin-13 [2]; listed as His378Ala", "value": "completely lack of peptidase activity"}, {"measurement": "peptidase activity toward surrogate substrate Mca-APK(Dnp)", "setting": "[3]", "value": "completely lost their enzymatic activity"}, {"measurement": "peptidase activity toward surrogate substrate Mca-APK(Dnp)", "setting": "[3]; listed as His378Ala", "value": "completely lack of peptidase activity"}]}, {"compound": "R273A", "values": [{"measurement": "IC50 of pseudotyped viral transduction", "setting": "[1]", "value": 0.19, "unit": "µg/mL"}, {"measurement": "inhibition of pseudotyped viral transduction (in words)", "setting": "[1]", "value": "could suppress the transduction of a pseudotyped virus"}, {"measurement": "generation of Ang 1-7 from Ang II by mass spectrometry", "setting": "Ang II", "value": "loss of activity"}, {"measurement": "generation of Ang 1-7 from Ang II by mass spectrometry", "setting": "Ang II; listed as ACE2-Fc R273A", "value": "no Ang 1-7 signal was observed"}]}, {"compound": "angiotensin converting enzyme 2 [ACE2]", "values": [{"measurement": "Km", "setting": "angiotensin I", "value": 6.9, "unit": "µM"}, {"measurement": "Km", "setting": "angiotensin II", "value": 2000, "unit": "nM"}, {"measurement": "Km", "setting": "dynorphin-13", "value": 5.5, "unit": "µM"}, {"measurement": "Km", "setting": "apelin-13 [4]", "value": 6.8, "unit": "µM"}]}, {"compound": "wild-type ACE2-Fc: ectodomain of human ACE2 fused to the N-terminus of Fc domain of human IgG1; forms a dimer", "values": [{"measurement": "tolerability of repeated doses", "setting": "[5]", "value": "well tolerated"}, {"measurement": "blood pressure control", "setting": "[6]", "value": "blood pressure control for up to two weeks"}, {"measurement": "binding to SARS-CoV-2 spike RBD", "setting": "[7]", "value": "highest binding affinity"}]}]}
